The values below are quoted from earlier work in US20140295424.

As a reminder, the Kd is a measure of binding affinity in units of concentration.

In the data set the test system is IgE (human myeloma IgE) (Homo sapiens). The settings on record: CITED; KD stated for purchased aptamer D17.4, no measurement described; cited from earlier work.

As to “GCCTGTTGTGAGCCTCCTGTCGAAGCACGTTTATCCGTCCCTCCTAGTGGCGTGCTTGAGCGTTTATTCTTGTCTCCC [IgE aptamer D17.4]”, the Kd is 10 nM.
